Source: US20060287509A1 (University of California, published 2006)
Numbering of substitutions follows the chain as printed.

B1: C6-B1L1 (scFv, part only; not given: linker and VL, part only)
scFv, part: QVQLLQSGAELKKPGSLKISCKGSGYSFTSWIAWVRQMPGKGLEYGLIYPGDSDTKYSPSQGQVTISVDKSVSTALQWSSLKPSDSAVYFARHDVGYCHDVGYCTDRTCAKWPYFQHTVS
B2: C6-B47L1 (scFv, part only; not given: linker and VL, part only)
scFv, part: B1 scFv, part with T108S
B3: C6VLF (scFv)
chain: QVQLLQSGAELKKPGESLKISCKGSGYSFTSYWIAWVRQMPGKGLEYMGLIYPGDSDTKYSPSFQGQVTISVDKSVSTAYLQWSSLKPSDSAVYFCARHDVGYCSSSNCAKWPEYFQHWGQGTLVTVSSGGGGSGGGGSGGGGSQSVLTQPPSMSAAPGQKVTISCSGSSSNIGNNYVSWYQQFPGTAPKLLIHDNNKRPSGIPDRISGSKSGTSASLAISGLQSDDEADYYCAAWDDSLNGWVFGGGTKLTVLG
B4: C6VLD (scFv)
chain: QVQLLQSGAELKKPGESLKISCKGSGYSFTSYWIAWVRQMPGKGLEYMGLIYPGDSDTKYSPSFQGQVTISVDKSVSTAYLQWSSLKPSDSAVYFCARHDVGYCSSSNCAKWPEYFQHWGQGTLVTVSSGGGGSGGGGSGGGGSQSVLTQPPSVSAAPGQKVTISCSGTNSNIGNNYVSWYQQLPGTAPKLLIYTNDQRPSGVPDRFSGSKSGTSASLAISGLQSEDEADYYCAAWDDSLNGWMFGGGTKLTVLG
B5: C6VLE (scFv)
chain: QVQLLQSGAELKKPGESLKISCKGSGYSFTSYWIAWVRQMPGKGLEYMGLIYPGDSDTKYSPSFQGQVTISVDKSVSTAYLQWSSLKPSDSAVYFCARHDVGYCSSSNCAKWPEYFQHWGQGTLVTVSSGGGGSGGGGSGGGGSQSVLTQPPSVSAAAGQKVTISCSGSSSSIGRNYVSWNQQLPGTAPKLLIWRNNQRPSGVPDRFSGSKSGTSASLAISGVRSEDEADYYCASWDNSLSGWVFGGGTKLTVLG
B6: C6ML3-3 (scFv)
scFv: QVQLLQSGAELKKPGESLKISCKGSGYSFTSYWIAWVRQMPGKGLEYMGLIYPGDSDTKYSPSFQGQVTISVDKSVSTAYLQWSSLKPSDSAVYFCARHDVGYCSSSNCAKWPEYFQHWGQGTLVTVSSGGGGSGGGGSGGGGSQSVLTQPPSVSAAPGQKVTISCSGSSSNIGNNYVSWYQQLPGTAPKLLIYGHTNRPAGVPDRFSGSKSGTSASLAISGFRSEDEADYYCATWDYALSGWVFGGGTKLTVLG
notes: C6.5 with this VL CDR3; C-terminal myc and His6 tags
B7: C6ML3-2 (scFv)
scFv: B6 scFv with T235A, Y238H, A239S
notes: as for B6
B8: C6ML3-6 (scFv)
scFv: B6 scFv with T235S, A239S
notes: as for B6
B9: C6ML3-15 (scFv)
scFv: B6 scFv with T235A, Y238R, A239P, S241W
notes: as for B6
B10: C6ML3-7 (scFv)
scFv: B6 scFv with T235A, L240V
notes: as for B6
B11: C6ML3-12 (scFv)
scFv: B6 scFv with T235A, A239S, L240R
notes: as for B6
B12: C6ML3-13 (scFv)
scFv: B6 scFv with T235A, Y238A, A239T, S241W
notes: as for B6
B13: C6ML3-14 (scFv)
scFv: B6 scFv with T235A, Y238D, A239P, S241W
notes: as for B6
B14: C6ML3-4 (scFv)
scFv: B6 scFv with T235S, D237E, A239S, S241W
notes: as for B6
B15: C6ML3-10 (scFv)
scFv: B6 scFv with T235A, D237E, Y238D, A239P, L240W, S241Y
notes: as for B6
B16: C6ML3-29 (scFv)
scFv: B6 scFv with T235A, Y238G, A239T, S241W
notes: as for B6
B17: C6ML3-1 (scFv)
scFv: B6 scFv with T235A, A239S, S241W
notes: as for B6
B18: C6ML3-19 (scFv)
scFv: B6 scFv with T235S, Y238R, A239P, S241W
notes: as for B6
B19: C6ML3-23 (scFv)
scFv: B6 scFv with T235S, Y238H, A239S, S241W
notes: as for B6
B20: C6ML3-11 (scFv)
scFv: B6 scFv with T235A, S241W
notes: as for B6
B21: C6ML3-8 (scFv)
scFv: B6 scFv with T235A, Y238H, A239L, L240R, S241W
notes: as for B6
B22: C6-B1D6 (scFv)
scFv: B6 scFv with S105T, S106D, S107R, N108T, Y115W, F116M, Q117Y, H118P, T235S, A239T
notes: C6MH3-B1 with the library D residues of C6MH3-D6
B23: C6-B1D5 (scFv)
chain: B6 scFv with S105T, S106D, S107R, N108T, Y115W, F116M, H118M, T235S, A239T
B24: C6-B1D3 (scFv)
chain: B6 scFv with S105T, S106D, S107R, N108T, Y115W, F116L, Q117D, H118N, T235S, A239T
B25: C6-B1D1 (scFv)
chain: B6 scFv with S105T, S106D, S107R, N108T, Y115W, F116L, Q117H, H118V, T235S, A239T
B26: C6-B1D2 (scFv)
chain: B6 scFv with S105T, S106D, S107R, N108T, Y115W, F116L, Q117G, H118V, T235S, A239T
B27: C6-B47D1 (scFv)
scFv: B6 scFv with S105T, S106D, S107R, N108S, Y115W, F116L, Q117H, H118V, T235S, A239T
notes: C6MH3-B47 with the library D residues of C6MH3-D1
B28: C6-B47D6 (scFv)
scFv: B6 scFv with S105T, S106D, S107R, N108S, Y115W, F116M, Q117Y, H118P, T235S, A239T
notes: C6MH3-B47 with the library D residues of C6MH3-D6
B29: C6-B47D2 (scFv)
scFv: B6 scFv with S105T, S106D, S107R, N108S, Y115W, F116L, Q117G, H118V, T235S, A239T
notes: C6MH3-B47 with the library D residues of C6MH3-D2
B30: C6-B47D3 (scFv)
scFv: B6 scFv with S105T, S106D, S107R, N108S, Y115W, F116L, Q117D, H118N, T235S, A239T
notes: C6MH3-B47 with the library D residues of C6MH3-D3
B31: C6-B47D5 (scFv)
scFv: B6 scFv with S105T, S106D, S107R, N108S, Y115W, F116M, H118M, T235S, A239T
notes: C6MH3-B47 with the library D residues of C6MH3-D5
B32: C6-9L1 (scFv)
chain: QVQLLQSGAELKKPGESLKISCKGSGYSFTSYWIAWVRQMPGKGLEYMGLIYPGDSDTKYSPSFQGQVTISVDKSVSTAYLQWSSLKPSDSAVYFCARHDVGYCSSSNCAKWPEYFQHWGQGTLVTVSSGGGGSGGGGSGGGGSQSVLTQPPSVSGAPGQWVTISCSGSSSNIGNNYVSWYQQLPGTAPKLLIYDNNKRPSGVPDRFSGSQSGTSASLAISGLRSEDEADYYCASWDYTLSGWVFGGGTKLTVLG
B33: C6-12L1 (scFv)
chain: B32 chain with S235A, T239S, L240R

Molecular target: c-erbB-2 ECD with a Ser-Gly-His6 C-terminal fusion (UniProt P04626)
Assay: from SPR (BIAcore) Kd values

| Binder | ΔΔGI |
| --- | --- |
| B1 | 0.43 kcal/mol |
| B2 | 0.45 kcal/mol |

Molecular target: T1, c-erbB-2 ECD with a Ser-Gly-His6 C-terminal fusion (UniProt P04626 23-652)
T1 construct: extracellular domain; expressed from CHO cells, IMAC purified; coupled to a CM5 chip, adsorbed to polystyrene, or biotinylated and captured on avidin; also called c-erbB-2 extracellular domain; biotinylated c-erbB-2 ECD
Assay: competition ELISA: sFv preincubated with soluble ECD (0-100 nM), free sFv read on immobilized ECD

| Binder | IC50 |
| --- | --- |
| B3 | 7.5 nM |
| B4 | 5.8 nM |
| B5 | 2.8 nM |

Molecular target: T1, c-erbB-2 ECD with a Ser-Gly-His6 …
Assay: SPR (BIAcore)

| Binder | kon | koff |
| --- | --- | --- |
| B6 | 460000 M⁻¹ s⁻¹ | – |
| B7 | 710000 M⁻¹ s⁻¹ | – |
| B8 | 590000 M⁻¹ s⁻¹ | – |
| B9 | 590000 M⁻¹ s⁻¹ | 0.0013 s⁻¹ |
| B10 | 650000 M⁻¹ s⁻¹ | – |
| B11 | 450000 M⁻¹ s⁻¹ | – |
| B12 | 870000 M⁻¹ s⁻¹ | – |
| B13 | 770000 M⁻¹ s⁻¹ | – |
| B14 | 400000 M⁻¹ s⁻¹ | – |
| B15 | 610000 M⁻¹ s⁻¹ | – |
| B16 | 1.29e+06 M⁻¹ s⁻¹ | – |
| B17 | 300000 M⁻¹ s⁻¹ | – |
| B18 | 670000 M⁻¹ s⁻¹ | – |
| B19 | 670000 M⁻¹ s⁻¹ | – |
| B20 | 610000 M⁻¹ s⁻¹ | – |
| B21 | 650000 M⁻¹ s⁻¹ | – |

Molecular target: T2, c-erbB-2 expressed on cells (SK-OV-3, SK-BR-3) (UniProt P04626 23-1255, limits assumed)
T2 construct: whole, on cells; also called native c-erbB-2 expressed on cells
Assay: Scatchard after radioiodination, SK-OV-3 cells

| Binder | Kd |
| --- | --- |
| B3 | 79 nM |
| B4 | 26 nM |
| B5 | 71 nM |

Molecular target: c-erbB-2 ECD with a Ser-Gly-His6 C-terminal fusion (UniProt P04626)
Assay: SPR (BIAcore)

| Binder | Kd | Kd (C6.5)/Kd (mut) | Kd (parent)/Kd (mut) | koff | kon |
| --- | --- | --- | --- | --- | --- |
| B1 | 0.63 nM | 25 | 0.19 | 0.00024 s⁻¹ | 380000 M⁻¹ s⁻¹ |
| B2 | 0.6 nM | 27 | 0.18 | 0.00018 s⁻¹ | 300000 M⁻¹ s⁻¹ |

Molecular target: T1, c-erbB-2 ECD with a Ser-Gly-His6 …
Assay: from SPR (BIAcore) Kd values

| Binder | ΔΔGI |
| --- | --- |
| B22 | -0.16 kcal/mol |
| B23 | -0.4 kcal/mol |
| B24 | -0.53 kcal/mol |
| B25 | -0.61 kcal/mol |
| B26 | -0.07 kcal/mol |
| B27 | -0.11 kcal/mol |
| B28 | 0.17 kcal/mol |
| B29 | 0.62 kcal/mol |
| B30 | 0.29 kcal/mol |
| B31 | -0.01 kcal/mol |
| B32 | 0.42 kcal/mol |
| B33 | -0.18 kcal/mol |

Molecular target: T1, c-erbB-2 ECD with a Ser-Gly-His6 …
Assay: SPR (BIAcore)
Remark: another data set of the same source

| Binder | fold lower Kd than wt C6.5 | fold increase in affinity vs wild-type sFv (C6.5) |
| --- | --- | --- |
| B24 | 1230 fold | – |
| B10 | – | 6 fold |
